# According to patent US20250326813A1 (ELPIS BIOPHARMACEUTICALS, published 2025):
# T1: human IL2Rα Fc fusion protein (human, UniProt P01589 22-213, limits assumed)
# T1 construct: also called CD25; not shown: Fc part
# T1 sequence (looked up): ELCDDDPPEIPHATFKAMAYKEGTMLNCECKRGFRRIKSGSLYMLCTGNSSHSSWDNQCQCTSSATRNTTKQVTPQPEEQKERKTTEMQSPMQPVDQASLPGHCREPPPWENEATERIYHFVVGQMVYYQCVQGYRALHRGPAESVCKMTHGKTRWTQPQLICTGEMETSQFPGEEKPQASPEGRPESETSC
# T2: human IL2Rβ Fc fusion protein (human, UniProt P14784 27-239)
# T2 construct: also called ILR2β; CD122; not shown: Fc part
# T2 sequence (looked up): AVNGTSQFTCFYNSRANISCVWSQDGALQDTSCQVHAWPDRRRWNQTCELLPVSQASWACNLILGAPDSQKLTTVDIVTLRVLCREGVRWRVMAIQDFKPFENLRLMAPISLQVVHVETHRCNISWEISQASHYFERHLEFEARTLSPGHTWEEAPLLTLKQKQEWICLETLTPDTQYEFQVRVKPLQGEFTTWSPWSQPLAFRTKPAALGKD
# Legend:
# [1] = molecular target: T1, human IL2Rα Fc fusion protein; assay: ELISA on coated receptor-Fc, anti-His detection; grade by OD450 (medium: 0.7-1.5)
# Method: (§1) Mammalian cell-produced agonists were characterized for their binding activities to respective IL2Rβ and IL2Rα receptors by ELISA. Briefly, 384 well plate was immobilized with human IL2Rα and IL2Rβ Fc fusion proteins at a final concentration of 2 μg/mL in 1× PBS in total volume of 25 μL per well. The plate was incubated overnight at 4° C. and blocked with 80 μL of superblock per well for 1 hour. The purified clones were added to IL2Rα or IL-2Rβ wells in parallel in duplicates as a titration, with the highest concentration of 1 μM, followed by a 10 point 5× serial dilution of the clones. The binding activity was detected by adding 25 μL of anti-His HRP diluted at 1:5000 in 1× PBST. In between each step, the plate was washed three times with 1× PBST using a plate washer. The plate was then developed with 25 μL of TMB substrate for five minutes and stopped by adding 25 μL of 2N sulfuric acid. The plate was read at OD450 nm Biotek plate reader and the bar graph at 1 μM of IL2 was generated with Prism 8.1 software (FIG. 2).
# [2] = molecular target: T2, human IL2Rβ Fc fusion protein; assay: as above
# Method: as §1
# [3] = molecular target: T2, human IL2Rβ Fc fusion protein; assay: SPR (Biacore T200), receptor captured on Protein A chip
# Method: (§2) The assay was run with Biacore T200 control software version 2.0. For each cycle, 1 μg/mL of human IL2Rβ or IL2Rα was captured for 60 seconds at flow rate of 10 μL/min on flow cell 2 in 1× HBSP buffer on Protein A sensor chip. 100 nM and 20 nM of HIS tag purified engineered IL2 mutant was injected onto both reference flow cell 1 and IL2Rβ or IL2Rα captured flow cell 2 for 150 seconds at flow rate of 30 μL/min followed by washing for 300 seconds. The flow cells were then regenerated with Glycine pH 2 for 60 seconds at a flow rate of 30 μL/mins. The kinetics data was analyzed with Biacore T200 evaluation software 3000. The specific binding response unit was derived from subtraction of binding to reference flow cell 1 from target flow cell 2.
# [4] = molecular target: T1, human IL2Rα Fc fusion protein; assay: ELISA, single concentration, anti-flag detection, E. coli-produced clone
# Method: (§3) Supernatants containing engineered IL2 mutants were assessed with sandwich ELISA assay to screen for IL2Rα binding. Briefly, 96-well plate was immobilized with human Fc and human IL2Rα, respectively, at a final concentration of 2 μg/mL in 1× PBS in total volume of 50 μL per well. The plate was incubated overnight at 4° C. followed by blocking with 200 μL of superblock per well for 1 hour. 100 μl of supernatant was added to both Fc and IL2Rα immobilized wells and incubated for 1 hour with shaking. The engineered IL2 mutant binding was detected by adding 50 μL of anti-Flag HRP diluted at 1:5000 in 1× PBST. In between each step, the plate was washed three times with 1× PBST in a plate washer. The plate was then developed with 50 μL of TMB substrate for five minutes and stopped by adding 50 μL of 2N sulfuric acid. The plate was read at OD450 nm using a Biotek plate reader and the binding and selectivity was analyzed.
# as §3, with “Single clones were next screened for IL2Rβ binding. IL2Rβ binding screening ELISA was developed for the identification of individual” for “Supernatants containing”, “mutant.” for “mutants were assessed with sandwich ELISA assay to screen for IL2Rα binding.”, “IL2Rβ,” for “IL2Rα,”, “IL2Rβ” for “IL2Rα”
# (§4) To further triage, the engineered IL2 clones with unique sequences were produced in E. coli. In short, the glycerol stock of each engineered agonist clone was inoculated into TB medium for overnight growth. The next day, cells from the overnight culture were inoculated into TB medium and grown to a cell density of OD₆₀₀ between 0.6-0.8. IPTG was added to a final concentration of 1 mM to induce the expression during culture at 30° C. overnight. The supernatant was collected by centrifugation.
# [5] = molecular target: T2, human IL2Rβ Fc fusion protein; assay: as above
# Method: as §3
# as §3, with “Single clones were next screened for IL2Rβ binding. IL2Rβ binding screening ELISA was developed for the identification of individual” for “Supernatants containing”, “mutant.” for “mutants were assessed with sandwich ELISA assay to screen for IL2Rα binding.”, “IL2Rβ,” for “IL2Rα,”, “IL2Rβ” for “IL2Rα”
# as §4
# [6] = molecular target: T1, human IL2Rα Fc fusion protein; assay: SPR (Biacore T200), receptor captured on Protein A chip, IL2 at 100 nM and 20 nM
# Method: as §2
# [7] = molecular target: T1, human IL2Rα Fc fusion protein; assay: ELISA on coated receptor-Fc, anti-His detection; grade by OD450 (weak: 0.3-0.7)
# Method: as §1
# [8] = molecular target: T2, human IL2Rβ Fc fusion protein; assay: as above
# Method: as §1
# [9] = molecular target: T1, human IL2Rα Fc fusion protein; assay: ELISA: human IL2Rα Fc fusion coated at 2 µg/mL, purified His-tagged IL2 titrated from 1 µM in 5x steps, anti-His HRP, OD450
# Method: as §1
# [10] = molecular target: T2, human IL2Rβ Fc fusion protein; assay: ELISA: human IL2Rβ Fc fusion coated at 2 µg/mL, purified His-tagged IL2 titrated from 1 µM in 5x steps, anti-His HRP, OD450
# Method: as §1
# [11] = molecular target: T2, human IL2Rβ Fc fusion protein; assay: ELISA on coated receptor-Fc, anti-His detection, single point 1 µM
# Method: (§5) Back-mutations were characterized for their binding activities to IL2Rβ and IL2Rα receptors by ELISA. Briefly, 384 well plate was immobilized with human IL2Rα and IL2Rβ Fc fusion proteins at a final concentration of 2 μg/mL in 1× PBS in total volume of 25 μL per well. The plate was incubated overnight at 4° C. and blocked with 80 μL of superblock per well for 1 hour. […] The IL2 mutant binding was detected by adding 25 μL of anti-His HRP diluted at 1:5000 in 1× PBST. In between each step, the plate was washed three times with 1× PBST using a plate washer. […] The plate was then developed with 25 μL of TMB substrate for five minutes and stopped by adding 25 μl of 2N sulfuric acid. The plate was read at OD450 nm Biotek plate reader (Table 6) and the data was analyzed with Prism 8.1 software to generate bar graph (FIG. 5).
# [12] = molecular target: T2, human IL2Rβ Fc fusion protein; assay: SPR (Biacore T200), receptor captured on Protein A chip, IL2 at 100 nM and 20 nM
# Method: as §2
# [13] = molecular target: T1, human IL2Rα Fc fusion protein; assay: ELISA on coated receptor-Fc, anti-His detection, single point 10 µM
# Method: as §5
# [14] = molecular target: T2, human IL2Rβ Fc fusion protein; assay: as above
# Method: as §5
# [15] = molecular target: T1, human IL2Rα Fc fusion protein; assay: ELISA on coated receptor-Fc, anti-His detection
# Method: as §1
binder,measurement,setting,value
"EP565, mammalian cell-produced, with F35L, R38D and F42R (ligand, His-Flag tag not in the parts; also called 2021EP22-F10) APASSSTKKTQLQLEHLLLDLQMILNGINNYKNPLLTDMLTRKFYMPKKATELKHLQCLEEELKPLEEVLNLAQSKNFHLRSRQLISNMNGIILKLKGSETTFMCEYADETATIVEFLNRWITFSQSIISTLT",OD450,[1],0.7 to 1.5 od
same,OD450,[2],0.7 to 1.5 od
"EP567 (clone 2021EP21-C04), E. coli-produced (ligand) APASSSTKKTQLQLEHLLLDLQMILNGINNYKNPKLTRMLTFKFYMPKKATELKHLQCLEEELKPLEEVLNLAQSKNFHLSLREPIGNIVTSVRELKGSETTFMCEYADETATIVEFLNRWITFSQSIISTLT",binding result,[3],no binding (tested: Rmax < 5RU; 100 nM and 20 nM)
same,OD450 nm,[4],0.05 OD450
same,OD450 nm,[5],0.068 OD450
same,Kd,[6],188 nM
"EP567, mammalian cell-produced (ligand, also called 2021EP21-C04) APASSSTKKTQLQLEHLLLDLQMILNGINNYKNPLLTDMLTRKFYMPKKATELKHLQCLEEELKPLEEVLNLAQSKNFHLSLREPIGNIVTSVRELKGSETTFMCEYADETATIVEFLNRWITFSQSIISTLT",OD450,[7],0.3 to 0.7 od
same,OD450,[8],0.3 to 0.7 od
"EP568 (clone 2021EP16-H06), E. coli-produced (ligand) APASSSTKKTQLQLEHLLLDLQMILNGINNYKNPKLTRMLTFKFYMPKKATELKHLQCLEEELKPLEEVLNLAQSKNFHLLAKRTVSNMYVRVEELKGSETTFMCEYADETATIVEFLNRWITFSQSIISTLT",binding result,[3],no binding (tested: Rmax < 5RU; 100 nM and 20 nM)
same,OD450 nm,[4],1.25 OD450
same,OD450 nm,[5],0.105 OD450
"EP576, mammalian cell-produced, with F35L, R38D and F42R (ligand, His-Flag tag not in the parts; also called 2021EP21-C10) APASSSTKKTQLQLEHLLLDLQMILNGINNYKNPLLTDMLTRKFYMPKKATELKHLQCLEEELKPLEEVLNLAQSKNFHLLPRNKISKTKVMVHELKGSETTFMCEYADETATIVEFLNRWITFSQSIISTLT",binding result,[9],no binding (tested: 1000 nM)
same,binding result,[10],no binding (tested: 1000 nM)
"EP581, mammalian cell-produced (ligand, also called 2021EP16-C10) APASSSTKKTQLQLEHLLLDLQMILNGINNYKNPLLTDMLTRKFYMPKKATELKHLQCLEEELKPLEEVLNLAQSKNFHLRSREVVSRIDAIILELKGSETTFMCEYADETATIVEFLNRWITFSQSIISTLT",OD450,[7],0.3 to 0.7 od
same,OD450,[8],0.3 to 0.7 od
"EP596, IL2Rβ enhanced binding agonist (ligand, Control in SPR and ELISA) APASSSTKKTQLQLEHLLLDLQMILNGINNYKNPLLTDMLTRKFYMPKKATELKHLQCLEEELKPLEEVLNLAQSKNFHLTARDAIDNINVIVQELKGSETTFMCEYADETATIVEFLNRWITFSQSIISTLT",Average OD (450 nm),[11],1.63 OD450
same,Kd,[12],1.03 nM
same,EC50 (read off the curve),[10],~1 nM
"EP575, mammalian cell-produced (ligand, also called 2021EP16-D09) APASSSTKKTQLQLEHLLLDLQMILNGINNYKNPLLTDMLTRKFYMPKKATELKHLQCLEEELKPLEEVLNLAQSKNFHLRNKGILGDISNIVLALKGSETTFMCEYADETATIVEFLNRWITFSQSIISTLT",Average OD (450 nm),[13],0.113 OD450
same,Average OD (450 nm),[14],0.093 OD450
same,OD450,[8],0.3 to 0.7 od
same,binding result,[9],no binding (tested: 1000 nM)
"EP580, mammalian cell-produced, with F35L, R38D and F42R (ligand, His-Flag tag not in the parts; also called 2021EP16-H09) APASSSTKKTQLQLEHLLLDLQMILNGINNYKNPLLTDMLTRKFYMPKKATELKHLQCLEEELKPLEEVLNLAQSKNFHLRIRDLLNKINELHRYIKGSETTFMCEYADETATIVEFLNRWITFSQSIISTLT",binding result,[15],no binding (tested: OD450 < 0.1; 1 µM)
same,binding result,[10],no binding (tested: 1000 nM)
"EP573, mammalian cell-produced, with F35L, R38D and F42R (ligand, His-Flag tag not in the parts; also called 2021EP16-E02) APASSSTKKTQLQLEHLLLDLQMILNGINNYKNPLLTDMLTRKFYMPKKATELKHLQCLEEELKPLEEVLNLAQSKNFHLNRTDLVGDVNATIKALKGSETTFMCEYADETATIVEFLNRWITFSQSIISTLT",binding result,[15],no binding (tested: OD450 < 0.1; 1 µM)
same,OD450,[8],0.3 to 0.7 od
